Measurements reported in patent US7374920B2, “Ginkgo biloba levopimaradiene synthase” (priority 2001, dated 2008).
“Also recorded” adds a separate entry of the source.

B1: Leu^80: Ginkgo biloba levopimaradiene synthase truncated at Arg^79-Leu^80; amino acid sequence SEQ.ID.NO:37 (protein, listed as Ginkgo biloba)
chain: MLNADYHPAVWKDDFIDSLTSPNSHATSKSSVDETINKRIQTLVKEIQCMFQSMGDGETNPSAYDTAWVARIPSIDGSGAPQFPQTLQWILNNQLPDGSWGEECIFLAYDRVLNTLACLLTLKIWNKGDIQVQKGVEFVRKHMEEMKDEADNHRPSGFEVVFPAMLDEAKSLGLDLPYHLPFISQIHQKRQKKLQKIPLNVLHNHQTALLYSLEGLQDVVDWQEITNLQSRDGSFLSSPASTACVFMHTQNKRCLHFLNFVLSKFGDYVPCHYPLDLFERLWAVDTVERLGIDRYFKKEIKESLDYVYRYWDAERGVGWARCNPIPDVDDTAMGLRILRLHGYNVSSDVLENFRDEKGDFFCFAGQTQIGVTDNLNLYRCSQVCFPGEKIMEEAKTFTTNHLQNALAKNNAFDKWAVKKDLPGEVEYAIKYPWHRSMPRLEARSYIEQFGSNDVWLGKTVYKMLYVSNEKYLELAKLDFNMVQALHQKETQHIVSWWRESGFNDLTFTRQRPVEMYFSVAVSMFEPEFAACRIAYAKTSCLAVILDDLYDTHGSLDDLKLFSEAVRRWDISVLDSVRDNQLKVCFLGLYNTVNGFGKDGLKEQGRDVLGYLRKVWEGLLASYTKEAEWSAAKYVPTFNEYVENAKVSIALATVVLNSIFFTGELLPDYILQQVDLRSKFLHLVSLTGRLINDTKTYQAERNRGELVSSVQCYMRENPECTEEEALSHVYGIIDNALKELNWELANPASNAPLCVRRLLFNTARVMQLFYMYRDGFGISDKEMKDHVSRTLFDPVA
B2: Levopimaradiene synthase: enzyme which catalyzes the synthesis of levopimaradiene from geranylgeranyl diphosphate; SEQ.ID.NO:2 (protein, listed as Ginkgo biloba)
chain: MAGVLFANLPCSLQLSPKVPFRQSTNILIPFHKRSSFGFNAQHCVRSHLRLRWNCVGIHASAAETRPDQLPQEERFVSRLNADYHPAVWKDDFIDSLTSPNSHATSKSSVDETINKRIQTLVKEIQCMFQSMGDGETNPSAYDTAWVARIPSIDGSGAPQFPQTLQWILNNQLPDGSWGEECIFLAYDRVLNTLACLLTLKIWNKGDIQVQKGVEFVRKHMEEMKDEADNHRPSGFEVVFPAMLDEAKSLGLDLPYHLPFISQIHQKRQKKLQKIPLNVLHNHQTALLYSLEGLQDVVDWQEITNLQSRDGSFLSSPASTACVFMHTQNKRCLHFLNFVLSKFGDYVPCHYPLDLFERLWAVDTVERLGIDRYFKKEIKESLDYVYRYWDAERGVGWARCNPIPDVDDTAMGLRILRLHGYNVSSDVLENFRDEKGDFFCFAGQTQIGVTDNLNLYRCSQVCFPGEKIMEEAKTFTTNHLQNALAKNNAFDKWAVKKDLPGEVEYAIKYPWHRSMPRLEARSYIEQFGSNDVWLGKTVYKMLYVSNEKYLELAKLDFNMVQALHQKETQHIVSWWRESGFNDLTFTRQRPVEMYFSVAVSMFEPEFAACRIAYAKTSCLAVILDDLYDTHGSLDDLKLFSEAVRRWDISVLDSVRDNQLKVCFLGLYNTVNGFGKDGLKEQGRDVLGYLRKVWEGLLASYTKEAEWSAAKYVPTFNEYVENAKVSIALATVVLNSIFFTGELLPDYILQQVDLRSKFLHLVSLTGRLINDTKTYQAERNRGELVSSVQCYMRENPECTEEEALSHVYGIIDNALKELNWELANPASNAPLCVRRLLFNTARVMQLFYMYRDGFGISDKEMKDHVSRTLFDPVA

Columns and labels:
[1] = in vitro enzymatic assay of levopimaradiene synthase constructs expressed in E. coli BL21(DE3); assay type: biochemical, Escherichia coli
Experimental: The desired plasmids were prepared by ligating the mutated gene insert into the similarly digested vectors pET32c(+) (Novagen; Madison, Wis.) and pRS426GAL (Hua, 2000), a multiple copy yeast expression vector. These plasmids was expressed in E. coli BL21(DE3) (Novagen; Madison, Wis.). E. coli cells were grown in Luria-Bertani medium supplemented with 100 μg/mL ampicillin at 37° C. with shaking to OD600 ˜0.6. The following parameters were tested: isopropyl 1-thio-β-D-galactopyranoside (IPTG) concentration (50, 100, 250, 500, and 1000 μM); and temperature and time (20° C. for 2, 3, 4, 6, 21 hours, 22° C. for 6, 8, 16, 19, 22, 45 hours, and 30° C. for 3, 6 hours). The following assay conditions were tested to obtain maximum diterpene product yield: 30 mM HEPES (N-2-hydroxyethylpiperazine-N′-[…]), pH 6.9, 7.2, 7.6, 8.0; 30 mM Tris (tris(hydroxymethyl)aminomethane hydrochloride), pH 7.4, 7.8, 8.2; 1, 5, 10% glycerol; 1, 3, 5, 10, 20 mM DTT (dithiothreitol); 20 mM β-mercaptoethanol; 2, 5, 8% Triton X-100; 5% Tween 80; 0, 2, 7.5, 20, 50 mM MgCl2; 0, 30, 500, 1000 μM MnCl2; 2, 10, 13.3, 20, 40, 80, 200 μM GGDP; and 23° C. and 32° C. assay temperatures.
Optimal soluble protein production and diterpene yield were obtained with the following conditions. Cell cultures were induced with 1 mM IPTG at 20° C. with shaking for 6 hours and lysed by sonication in 30 mM HEPES, pH 7.2, 5 mM DTT, and 5% glycerol. The soluble fraction of the lysate (100 mg/mL) was incubated with 20 μM GGDP in 30 mM HEPES, pH 7.2, 5 mM DTT, 5% glycerol, 2 mM MgCl2, and 500 μM MnCl2 overnight at 32° C.
(§1) All in vitro reactions were extracted 3× with hexane and dried over MgSO4. The reaction was further extracted twice with diethyl ether and dried over MgSO4. Thereafter, the crude lysate was suspended in 100 mM Tris, pH 8.0 containing 2.9 units/mg apyrase (a dephosphorylating agent) and 10 units/μL calf intestinal alkaline phosphatase, incubated at 30° C. for 3 hours, and extracted with diethyl ether as noted above (Croteau and Cane, 1985). The crude reaction mixtures were eluted over SiO2, concentrated, and analyzed by GC and GC/MS.
(§2) Gas chromatography spectra were obtained on a Hewlett Packard 6890 Series GC System equipped with an Rtx-5 capillary column (Restek, 30 m×0.25 mm i.d., 0.10 μm df). The following separation conditions and temperature program were employed: injector port 250° C., FID 250° C., split ratio 39:1, helium flow 20 cm/s (0.6 mL/min), 150° C. hold 5 min, increase to 250° C. (5° C./min), hold 5 min. GC/MS spectra were obtained on a Hewlett-Packard 5890A instrument with a 30-m DB-5 ms column (J&W Scientific Inc., 0.25 mm i.d., 0.10 μm df). The following separation conditions and temperature program were employed: injector port 280° C., transfer lines: 280° C., helium flow at 30 cm/s (1 mL/min) with splitless injection at 150° C. hold 3 min, increase to 250° C. (5° C./min), hold 5 min. Mass spectra (m/z 50 to 500) were obtained on a VG ZAB-HF reverse-geometry double-focusing instrument at 70 eV with an electron-impact ion source (200° C.). Accelerating voltage was set to 8 kV and the resolution was 1000 (10% valley).
The skilled artisan recognizes that lysis and assay conditions should be optimized. Examples of parameters that can be adjusted to optimize conditions include altering buffer, pH, reductant, reductant concentration, metal cofactors, cofactor concentrations, glycerol concentrations, substrate concentrations, and assay temperatures. […] Maximum soluble protein production and diterpene yield were obtained with the following conditions. Cell cultures were induced with 1 mM IPTG at 20° C. with shaking for 6 hours and lysed by sonication in 30 mM HEPES, pH 7.2, 5 mM DTT, and 5% glycerol. The soluble fraction of the lysate (100 mg/1 mL) was incubated with 20 μM GGDP in 30 mM HEPES, pH 7.2, 5 mM DTT, 5% glycerol, 2 mM MgCl2, and 500 μM MnCl2 overnight at 32° C. […]

[2] = in vitro assay of levopimaradiene synthase constructs expressed in wild-type S. cerevisiae JBY575; assay type: biochemical, Saccharomyces cerevisiae; details: wild-type S. cerevisiae JBY575, galactose 48 hours, lysate with GGDP
Experimental: Expression in S. cerevisiae JBY575, which represents wild-type yeast, was observed. JBY575 cells transformed with pRS426GAL inserted with the putative levopimaradiene synthase were grown in synthetic complete medium lacking uracil and supplemented with 2% glucose and 1.5% agar at 30° C. to saturation and induced with galactose for 48 hours. Cells were harvested, resuspended in lysis buffer, and mixed by vortexing over glass beads. The lysate was assayed with 60 μM GGDP in the presence and absence of 0.2% and 5% Triton X-100.
as §1, §2
The skilled artisan recognizes that lysis and assay conditions should be optimized. Examples of parameters that can be adjusted to optimize conditions include altering buffer, pH, reductant, reductant concentration, metal cofactors, cofactor concentrations, glycerol concentrations, substrate concentrations, and assay temperatures. […] Maximum soluble protein production and diterpene yield were obtained with the following conditions. Cell cultures were induced with 1 mM IPTG at 20° C. with shaking for 6 hours and lysed by sonication in 30 mM HEPES, pH 7.2, 5 mM DTT, and 5% glycerol. The soluble fraction of the lysate (100 mg/1 mL) was incubated with 20 μM GGDP in 30 mM HEPES, pH 7.2, 5 mM DTT, 5% glycerol, 2 mM MgCl2, and 500 μM MnCl2 overnight at 32° C. Yeast expression was induced with galactose at 30° C. for 48 hours and the cells were lysed and assayed according to the conditions noted.

[3] = tested on: EHY18 yeast cells; experiment: in vivo expression of GbLS constructs in yeast strain EHY18 that accumulates GGDP, GC quantitation of products; assay type: cell-based
Experimental: The yeast strain of the copending application employed was EHY18 (Hart, E., 2001) which was further transformed with multiple-copy yeast expression vectors comprising an isolated and purified nucleic acid sequence of GbLS or derivatives thereof, which are described herein under control of the GAL1 inducible promoter. Yeast cells were grown to saturation in 5 mL ScD-Leu-Ura at 30° C. Cells were harvested (1300×g, 2 min, 25° C.) and resuspended in 500 μL sterile Milli-Q H2O (2×). The washed cells were resuspended in 5 mL sterile Milli-Q H2O. An aliquot of the culture (5 μL) was added to a 25 mL Corex tube containing pre-prepared 2× resin and 5 mL ScG-Leu-Ura (4% galactose) and shaken at 30° C. for 6 days. Resin was collected by filtration through a Kontes chromatography column (1.7 cm diameter) and rinsed with dI H2O until eluent was clear. The resin was incubated in 2 mL ethanol for several minutes, eluted, and repeated 2×. The combined eluents were dissolved in approximately 3 mL dI H2O and extracted (3×) with 3 mL hexane. The combined extracts were concentrated under a stream of nitrogen. GC analysis (quantitation extrapolated from 0.2 mg/mL longifolene external standard) indicated the following product profile (obtained from triplicate measurement of three cultures): 0.61±0.20 mg/L levopimaradiene, 0.04±0.01 mg/L abietadiene, 0.15±0.05 mg/L abietatriene, 0.16±0.13 mg/L (+)-copalol, and 1.79±0.90 mg/L geranylgeraniol. GC/MS fragmentation confirmed the identity of each compound.
A large scale culture (1-L) was prepared by growing the yeast cells to saturation in 5 mL ScD-Leu-Ura at 30° C. Cells were harvested (1300×g, 2 min, 25° C.) and resuspended in 500 μL sterile Milli-Q H2O (2×). The washed cells were resuspended in 5 mL sterile Milli-Q H2O. An aliquot of the culture (1 mL) was added to a 2 L flask containing 1-L ScG-Leu-Ura (4% galactose) and 88.27 g resin in 120 mL Milli-Q H2O (pre-prepared). The resin was eluted with ethanol (3×100 mL with 20 min incubation periods), which was subsequently extracted (6×) with hexane. The combined extracts were dried over magnesium sulfate, filtered, and concentrated under reduced pressure. GC analysis (quantitation extrapolated from 0.2 mg/mL longifolene external standard) indicated the following product profile (obtained from triplicate measurement): 0.29±0.04 mg/L levopimaradiene, 0.04±0.02 mg/L abietadiene, 0.13±0.04 mg/L abietatriene, 0.11±0.02 mg/L (+)-copalol, and 0.56±0.03 mg/L geranylgeraniol. GC/MS analyses confirmed the production of the above noted diterpenes, which included hydrocarbons and an alcohol.
Further optimization studies employed the Ser61 construct. Factors influencing diterpene production included induction period and concentration of galactose and resin in the inducing medium.

| Molecule | diterpene product on bacterial expression ([1]; E. coli BL21(DE3), soluble lysate fraction, 20 μM GGDP, overnight at 32° C., GC and GC/MS) | diterpene product on yeast expression [2] | diterpene production relative to wild-type synthase ([3]; EHY18) | diterpene products on expression in EHY18 ([3]; GC, GC/MS) | metal cofactor requirement of synthase activity ([1]; MgCl2 and MnCl2 varied) | increase in levopimaradiene yield relative to the bacterial expression system ([3]; EHY18) |
| --- | --- | --- | --- | --- | --- | --- |
| B1 | produced levopimaradiene as the exclusive diterpene hydrocarbon; also recorded: provided enzymatic activity capable of cyclizing geranylgeranyl diphosphate to levopimaradiene | yielded levopimaradiene as the sole diterpene; also recorded: yielded levopimaradiene synthase activity | approximately four | produced (+)-copalol, levopimaradiene, abietadiene, and abietatriene | – | – |
| B2 | – | – | – | – | independent of magnesium but required manganese cofactor for catalysis | three- to six |
